In US5766897A, “Cysteine-pegylated proteins” (Incyte Pharmaceuticals, Inc., priority 1995, dated 1998):
Substitutions are numbered along the chain they refer to. In names and notes the source's numbering stands.

B1: PN-1 (protein, UniProt P07093 20-398, looked up)
Glia-derived nexin: SHFNPLSLEELGSNTGIQVFNQIVKSRPHDNIVISPHGIASVLGMLQLGADGRTKKQLAMVMRYGVNGVGKILKKINKAIVSKKNKDIVTVANAVFVKNASEIEVPFVTRNKDVFQCEVRNVNFEDPASACDSINAWVKNETRDMIDNLLSPDLIDGVLTRLVLVNAVYFKGLWKSRFQPENTKKRTFVAADGKSYQVPMLAQLSVFRCGSTSAPNDLWYNFIELPYHGESISMLIALPTESSTPLSAIIPHISTKTIDSWMSIMVPKRVQVILPKFTAVAQTDLKEPLKVLGITDMFDSSKANFAKITTGSENLHVSHILQKAKIEVSEDGTKASAATTAILIARSSPPWFIVDRPFLFFIRHNPTGAVLFMGQINKP
B2: C117S;C131S;C209S (protein, UniProt P07093 20-398, looked up, variant C117S C131S C209S)
Glia-derived nexin: B1 Glia-derived nexin with C117S, C131S, C209S
B3: E125C (conjugate, UniProt P07093 20-398, looked up, variant E125C)
Glia-derived nexin: B1 Glia-derived nexin with E125C
modifications: PEG
B4: R63C (conjugate, UniProt P07093 20-398, looked up, variant R63C)
Glia-derived nexin: B1 Glia-derived nexin with R63C
modifications: PEG
B5: N99C;N140C (protein, UniProt P07093 20-398, looked up, variant N99C N140C)
Glia-derived nexin: B1 Glia-derived nexin with N99C, N140C
B6: D192C (conjugate, UniProt P07093 20-398, looked up, variant D192C)
Glia-derived nexin: B1 Glia-derived nexin with D192C
modifications: PEG
B7: H252C (conjugate, UniProt P07093 20-398, looked up, variant H252C)
Glia-derived nexin: B1 Glia-derived nexin with H252C
modifications: PEG
B8: S263C (conjugate, UniProt P07093 20-398, looked up, variant S263C)
Glia-derived nexin: B1 Glia-derived nexin with S263C
modifications: PEG
B9: E230C (conjugate, UniProt P07093 20-398, looked up, variant E230C)
Glia-derived nexin: B1 Glia-derived nexin with E230C
modifications: PEG
B10: D147C (conjugate, UniProt P07093 20-398, looked up, variant D147C)
Glia-derived nexin: B1 Glia-derived nexin with D147C
modifications: PEG
B11: N304C (conjugate, UniProt P07093 20-398, looked up, variant N304C)
Glia-derived nexin: B1 Glia-derived nexin with N304C
modifications: PEG
B12: N85C (conjugate, UniProt P07093 20-398, looked up, variant N85C)
Glia-derived nexin: B1 Glia-derived nexin with N85C
modifications: PEG
B13: cysteine-PEGylated N99C;N140C: N99C;N140C PN-1 variant PEGylated at cysteines by reaction with Maleimido-PEG (PEG MW about 5,000) (conjugate, UniProt P07093 20-398, looked up, variant N99C N140C)
Glia-derived nexin: B1 Glia-derived nexin with N99C, N140C
modifications: cysteine-linked maleimido-PEG 5 kDa

Target: T1, Thrombin (Homo sapiens, UniProt P00734)
Assay: not given
Details: background statement; cited from earlier work

Molecule	acceleration of thrombin inhibition in the presence of heparin
B1	50-100 fold

Target: T1, Thrombin
Assay: thrombin inhibition activity assay (D.4), specific activity
Format: biochemical
Details: after cysteine-PEGylation with Maleimido-PEG
Protocol: Refolded or soluble protein was tested for capacity to inhibit thrombin in a standard assay. Briefly, serial 2-fold dilutions of PN-1 variant were added to microtiter plate wells (50 μl/well), followed by 50 μl of a 30 μg/ml heparin solution, followed by 1 NIH unit of thrombin in 50 μl. These were allowed to incubate at 25° C. for 15 minutes. Residual thrombin activity was measured by the addition of 50 μl S-2238 (Kabi Pharmaceuticals) at 0.625 mg/ml. PN-1 variants were tested for their ability to inhibit urokinase using the substrate S-2444, plasmin using the substrate S-2390, tPA using the substrate S2288, Factor Xa using the substrate S-2222 or S-2765, kallikrein using the substrate S-2302, human neutrophil elastase using s-AAPV-pna (Sigma), cathepsin G using s-AAPF-pna (Sigma) in a similar manner, with or without the addition of heparin.
Each of the PN-1 site-directed mutant proteins, as well as wild type PN-1, were modified by cysteine-PEGylation using the protocol described in F.2. The activity of wild type PN-1, each of the PN-1 site-directed mutants, and the cysteine-PEGylated wild type and mutant proteins was determined using the assay described in D.4.

Molecule	ACTIVITY, AFTER PEG MODIFICATION
B1	0.017 NIH units of thrombin inhibited per μg PN1 (variant)
B2	0.50 NIH units of thrombin inhibited per μg PN1 (variant)
B3	0.15 NIH units of thrombin inhibited per μg PN1 (variant)
B4	0.125 NIH units of thrombin inhibited per μg PN1 (variant)
B5	0.40 NIH units of thrombin inhibited per μg PN1 (variant)
B6	0.91 NIH units of thrombin inhibited per μg PN1 (variant)
B7	0.25 NIH units of thrombin inhibited per μg PN1 (variant)
B8	0.093 NIH units of thrombin inhibited per μg PN1 (variant)
B9	0.20 NIH units of thrombin inhibited per μg PN1 (variant)
B10	0.125 NIH units of thrombin inhibited per μg PN1 (variant)
B11	0.17 NIH units of thrombin inhibited per μg PN1 (variant)
B12	0.040 NIH units of thrombin inhibited per μg PN1 (variant)

Same assay, conditions: before PEG modification

Molecule	SPECIFIC ACTIVITY, BEFORE PEG MODIFICATION
B1	0.50 NIH units of thrombin inhibited per μg PN1 (variant)
B2	0.050 NIH units of thrombin inhibited per μg PN1 (variant)
B3	0.095 NIH units of thrombin inhibited per μg PN1 (variant)
B4	0.050 NIH units of thrombin inhibited per μg PN1 (variant)
B5	0.20 NIH units of thrombin inhibited per μg PN1 (variant)
B6	0.045 NIH units of thrombin inhibited per μg PN1 (variant)
B7	0.10 NIH units of thrombin inhibited per μg PN1 (variant)
B8	0.05 NIH units of thrombin inhibited per μg PN1 (variant)
B9	0.071 NIH units of thrombin inhibited per μg PN1 (variant)
B10	0.063 NIH units of thrombin inhibited per μg PN1 (variant)
B11	0.056 NIH units of thrombin inhibited per μg PN1 (variant)
B12	0.033 NIH units of thrombin inhibited per μg PN1 (variant)

Same assay, conditions: before PEG modification; activity relative to wild type PN-1

Molecule	REL TO WT, BEFORE PEG MODIFICATION
B1	1
B3	0.19
B4	0.10
B5	0.40
B6	0.091
B7	0.20
B8	0.1
B9	0.14
B10	0.125
B11	0.11
B12	0.066

Same assay, conditions: cysteine-PEGylated protein relative to same protein before PEGylation

Molecule	REL TO ACTIVITY BEFORE PEG, AFTER PEG MODIFICATION
B1	0.03
B3	1.57
B4	2.5
B5	2
B6	2
B7	2.5
B8	1.86
B9	2.8
B10	2
B11	3
B12	1.2

Same assay, conditions: cysteine-PEGylated protein relative to wild type PN-1

Molecule	REL TO WT, AFTER PEG MODIFICATION
B3	0.3
B4	0.25
B5	0.80
B6	0.18
B7	0.50
B8	0.19
B9	0.40
B10	0.25
B11	0.33
B12	0.080

Same assay, conditions: increasing ratio of PEG reagent to protein

Molecule	change of specific activity with increasing PEGylation reagent in reaction mixture (FIG. 4)
B13	increased with an increasing amount of the Maleimido-PEG reagent

Same assay, conditions: reacted at a ratio of 3:1 Maleimido-PEG to protein

Molecule	activity retained relative to unmodified PN-1
B13	at least 100%

System: not listed separately
Assay: serum half-life after tail vein injection, sandwich ELISA
Details: rat, in vivo
Text: The PN-1 variant N99C;N140C was PEGylated by reaction with the Maleimido-PEG reagent as described above in section G.2. Small scale reactions were first performed to determine the excess of Maleimido-PEG reagent required to drive the reaction to completion, i.e., to PEGylate both the N99C and N140C sites of the protein. The final PEGylation reaction contained about a 3-fold excess of Maleimido-PEG over the amount of N99C;N140C protein in the reaction mixture. Cysteine-PEGylated protein was purified by ion exchange chromatography as described in Section D3 above with an additional final Mono-S ion exchange step. The bis-modified,cysteine-PEGylated N99C;140C protein and unmodified N99C;N140C protein were resuspended in 50 mM PIPES pH 6.7, 150 mM NaCl, 10% glycerol.
The serum half-life of the PEGylated N99C;N140C variant was compared to the half-life of the unmodified N99C;N140C variant by injecting a 0.3 ml of a 3 mg/ml solution containing either the cysteine-PEGylated N99C;N140C or unmodified N99C;N140C into the tail vein of 200 g rats. At 2 min, 10 min, 30 min, 60 min, and 120 min after injection, a 0.5 ml blood sample was collected onto EDTA anticoagulant. The blood samples were centrifuged to separate plasma from blood cells, and the concentration of cysteine-PEGylated N99C;N140C or unmodified N99C;N140C determined by sandwich ELISA as described by Evans et al. (1991) J. Biol. Chem. 266:22307-22312, using a rabbit polyclonal antibody.

Molecule	enhancement of t1/2 by cysteine-PEGylation
B13	about 6 fold

Same assay, conditions: rat, in vivo, 60 min

Molecule	total administered amount present in the blood stream
B13	55-60%

Same assay, conditions: rat, in vivo, iv

Molecule	t1/2 (serum half-life) [min]
B13	60 to 80

Same assay, conditions: rat, tail vein injection

Molecule	t1/2 (serum half-life) [min]
B5	10 to 12

Same assay, conditions: rat, tail vein injection, 60 min time point

Molecule	total administered amount present in the blood stream
B5	less than 3%

System: human neutrophil elastase
Assay: second-order association rate constant vs elastase
Format: biochemical
Details: not given
Protocol: Refolded or soluble protein was tested for capacity to inhibit thrombin in a standard assay. Briefly, serial 2-fold dilutions of PN-1 variant were added to microtiter plate wells (50 μl/well), followed by 50 μl of a 30 μg/ml heparin solution, followed by 1 NIH unit of thrombin in 50 μl. These were allowed to incubate at 25° C. for 15 minutes. Residual thrombin activity was measured by the addition of 50 μl S-2238 (Kabi Pharmaceuticals) at 0.625 mg/ml. […]
The second-order rate association constants were determined for appropriate inhibitors-proteases combinations by combining equal-molar amounts of each protein (determined by titration as above) for various times from 1 second to 4 hours (as appropriate) and following the activity loss. […] Alternatively, the apparent first order rate constant was determined from the slope of a plot of log (normalized activity) vs time. The second order rate constant was calculated by dividing the apparent first order rate constant by the PN-1 (or variant) concentration used.

Molecule	inhibitory activity against elastase
B1	no inhibitory activity against elastase

System: E. coli
Assay: bactericidal effect of PN-1 added to E. coli
Format: cell-based
Details: native PN-1 added to E. coli
Protocol: Alternatively, PN-1 can be generated in a soluble form within E. coli by adjusting the fermentation conditions. This procedure provides a greater yield of soluble PN-1 as the fermentation temperature is decreased from 37° C. to 26° C. with a concomitant loss in inclusion body material. This is quite an unexpected finding, since PN-1 is bactericidal when native PN-1 is added to E. coli. To purify soluble PN-1, the cell supernatant from the disruption step was clarified by centrifugation and filtration or by treatment with polycations such as polyethyleneimine or Biacryl™ followed by centrifugation and filtration, and the soluble protein was purified as above. The generation of soluble material has many advantages: there is more certainty that the protein is correctly folded, there are no refolding steps, there is greater reproducibility from batch to batch.

Molecule	effect on E. coli
B1	bactericidal

System: Cathepsin G
Assay: not given
Details: background statement; cited from earlier work

Molecule	inhibition of cathepsin G
B1	does not inhibit

System: human neutrophil elastase
Assay: not given
Details: background statement; cited from earlier work

Molecule	inhibition of elastase
B1	does not inhibit
